Data reported in the Human Domainome abundance scans (Beltran et al. 2025).
± gives the uncertainty stated by the source.

B1: POU domain, class 3, transcription factor 4, residues 280 to 335; numbered along this chain, P49335 (parent)
chain: KKRTSIEVSVKGVLETHFLKCPKPAAQEISSLADSLQLEKEVVRVWFCNRRQKEKR

Variants of: B1
Test: abundance fitness (aPCA) (normalised: wild type 0, dead -1); higher = more abundant; growth selection in yeast, the domain comes from the species named
Conditions: Homo sapiens

First: KKRTSIEVSVKGVLETHFLKCYKPAAQEISSLADSLQLEKEVVRVWFCNRRQKEKR [P22Y]
Second: KKRTSIEVSVKGVLETHFLKCSKPAAQEISSLADSLQLEKEVVRVWFCNRRQKEKR [P22S]
The abundance fitness of the first is lower: -0.949 ± 0.33 for the first, -0.427 ± 0.13 for the second.

KKRTSIEVSVKGVLETHFLKCMKPAAQEISSLADSLQLEKEVVRVWFCNRRQKEKR [P22M] and KKRTSIEVSVKGVLETHFLKCTKPAAQEISSLADSLQLEKEVVRVWFCNRRQKEKR [P22T] are within error of each other in abundance fitness: -0.553 ± 0.21 for the first, -0.796 ± 0.23 for the second.

KKRTSIEVSVKGVLETHFLKCFKPAAQEISSLADSLQLEKEVVRVWFCNRRQKEKR [P22F] and KKRTSIEVSVKGVLETHFLKCDKPAAQEISSLADSLQLEKEVVRVWFCNRRQKEKR [P22D] are within error of each other in abundance fitness: -0.732 ± 0.23 for the first, -0.363 ± 0.23 for the second.

Going from KKRTSIEVSVKGVLETHFLKCGKPAAQEISSLADSLQLEKEVVRVWFCNRRQKEKR [P22G] to KKRTSIEVSVKGVLETHFLKCWKPAAQEISSLADSLQLEKEVVRVWFCNRRQKEKR [P22W], the abundance fitness rises from -0.909 ± 0.19 to -0.166 ± 0.22.

KKRTSIEVSVKGVLETHFLKCEKPAAQEISSLADSLQLEKEVVRVWFCNRRQKEKR [P22E] and KKRTSIEVSVKGVLETHFLKCLKPAAQEISSLADSLQLEKEVVRVWFCNRRQKEKR [P22L] are within error of each other in abundance fitness: -0.702 ± 0.21 for the first, -0.783 ± 0.15 for the second.

KKRTSIEVSVKGVLETHFLKCVKPAAQEISSLADSLQLEKEVVRVWFCNRRQKEKR [P22V] and KKRTSIEVSVKGVLETHFLKCIKPAAQEISSLADSLQLEKEVVRVWFCNRRQKEKR [P22I] are within error of each other in abundance fitness: -0.469 ± 0.13 for the first, -0.606 ± 0.28 for the second.

KKRTSIEVSVKGVLETHFLKCRKPAAQEISSLADSLQLEKEVVRVWFCNRRQKEKR [P22R] and KKRTSIEVSVKGVLETHFLKCKKPAAQEISSLADSLQLEKEVVRVWFCNRRQKEKR [P22K] are within error of each other in abundance fitness: -0.37 ± 0.15 for the first, -0.315 ± 0.21 for the second.

KKRTSIEVSVKGVLETHFLKCHKPAAQEISSLADSLQLEKEVVRVWFCNRRQKEKR [P22H] and KKRTSIEVSVKGVLETHFLKCCKPAAQEISSLADSLQLEKEVVRVWFCNRRQKEKR [P22C] are within error of each other in abundance fitness: -0.513 ± 0.26 for the first, -0.502 ± 0.27 for the second.

KKRTSIEVSVKGVLETHFLKCQKPAAQEISSLADSLQLEKEVVRVWFCNRRQKEKR [P22Q] and KKRTSIEVSVKGVLETHFLKCPFPAAQEISSLADSLQLEKEVVRVWFCNRRQKEKR [K23F] are within error of each other in abundance fitness: 0.208 ± 0.19 for the first, 0.137 ± 0.17 for the second.

KKRTSIEVSVKGVLETHFLKCPWPAAQEISSLADSLQLEKEVVRVWFCNRRQKEKR [K23W] and KKRTSIEVSVKGVLETHFLKCPDPAAQEISSLADSLQLEKEVVRVWFCNRRQKEKR [K23D] are within error of each other in abundance fitness: 0.037 ± 0.18 for the first, 0.263 ± 0.15 for the second.

KKRTSIEVSVKGVLETHFLKCPYPAAQEISSLADSLQLEKEVVRVWFCNRRQKEKR [K23Y] and KKRTSIEVSVKGVLETHFLKCPCPAAQEISSLADSLQLEKEVVRVWFCNRRQKEKR [K23C] are within error of each other in abundance fitness: 0.396 ± 0.19 for the first, 0.218 ± 0.16 for the second.

KKRTSIEVSVKGVLETHFLKCPSPAAQEISSLADSLQLEKEVVRVWFCNRRQKEKR [K23S] and KKRTSIEVSVKGVLETHFLKCPQPAAQEISSLADSLQLEKEVVRVWFCNRRQKEKR [K23Q] are within error of each other in abundance fitness: 0.17 ± 0.11 for the first, 0.064 ± 0.18 for the second.

First: KKRTSIEVSVKGVLETHFLKCPEPAAQEISSLADSLQLEKEVVRVWFCNRRQKEKR [K23E]
Second: KKRTSIEVSVKGVLETHFLKCPGPAAQEISSLADSLQLEKEVVRVWFCNRRQKEKR [K23G]
The abundance fitness of the first is higher: 0.142 ± 0.11 for the first, -0.664 ± 0.14 for the second.

First: KKRTSIEVSVKGVLETHFLKCPRPAAQEISSLADSLQLEKEVVRVWFCNRRQKEKR [K23R]
Second: KKRTSIEVSVKGVLETHFLKCPPPAAQEISSLADSLQLEKEVVRVWFCNRRQKEKR [K23P]
The abundance fitness of the first is higher: 0.118 ± 0.12 for the first, -0.697 ± 0.27 for the second.

Going from KKRTSIEVSVKGVLETHFLKCPMPAAQEISSLADSLQLEKEVVRVWFCNRRQKEKR [K23M] to KKRTSIEVSVKGVLETHFLKCPNPAAQEISSLADSLQLEKEVVRVWFCNRRQKEKR [K23N], the abundance fitness rises from 0.149 ± 0.18 to 0.559 ± 0.18.

KKRTSIEVSVKGVLETHFLKCPTPAAQEISSLADSLQLEKEVVRVWFCNRRQKEKR [K23T] and KKRTSIEVSVKGVLETHFLKCPHPAAQEISSLADSLQLEKEVVRVWFCNRRQKEKR [K23H] are within error of each other in abundance fitness: 0.237 ± 0.15 for the first, 0.186 ± 0.22 for the second.

KKRTSIEVSVKGVLETHFLKCPVPAAQEISSLADSLQLEKEVVRVWFCNRRQKEKR [K23V] and KKRTSIEVSVKGVLETHFLKCPIPAAQEISSLADSLQLEKEVVRVWFCNRRQKEKR [K23I] are within error of each other in abundance fitness: -0.225 ± 0.11 for the first, -0.369 ± 0.25 for the second.

KKRTSIEVSVKGVLETHFLICPKPAAQEISSLADSLQLEKEVVRVWFCNRRQKEKR [K20I] and KKRTSIEVSVKGVLETHFLQCPKPAAQEISSLADSLQLEKEVVRVWFCNRRQKEKR [K20Q] are within error of each other in abundance fitness: -0.574 ± 0.2 for the first, -0.578 ± 0.25 for the second.

Compared with KKRTSIEVSVKGVLETHFLGCPKPAAQEISSLADSLQLEKEVVRVWFCNRRQKEKR [K20G], KKRTSIEVSVKGVLETHFLLCPKPAAQEISSLADSLQLEKEVVRVWFCNRRQKEKR [K20L] is higher in abundance fitness: -0.69 ± 0.12 for the first, -0.446 ± 0.12 for the second.

KKRTSIEVSVKGVLETHFLHCPKPAAQEISSLADSLQLEKEVVRVWFCNRRQKEKR [K20H] and KKRTSIEVSVKGVLETHFLYCPKPAAQEISSLADSLQLEKEVVRVWFCNRRQKEKR [K20Y] are within error of each other in abundance fitness: -0.693 ± 0.26 for the first, -0.788 ± 0.18 for the second.

Compared with KKRTSIEVSVKGVLETHFLTCPKPAAQEISSLADSLQLEKEVVRVWFCNRRQKEKR [K20T], KKRTSIEVSVKGVLETHFLSCPKPAAQEISSLADSLQLEKEVVRVWFCNRRQKEKR [K20S] is lower in abundance fitness: -0.129 ± 0.16 for the first, -0.479 ± 0.15 for the second.

KKRTSIEVSVKGVLETHFLNCPKPAAQEISSLADSLQLEKEVVRVWFCNRRQKEKR [K20N] and KKRTSIEVSVKGVLETHFLRCPKPAAQEISSLADSLQLEKEVVRVWFCNRRQKEKR [K20R] are within error of each other in abundance fitness: -0.475 ± 0.18 for the first, -0.386 ± 0.12 for the second.

KKRTSIEVSVKGVLETHFLFCPKPAAQEISSLADSLQLEKEVVRVWFCNRRQKEKR [K20F] and KKRTSIEVSVKGVLETHFLVCPKPAAQEISSLADSLQLEKEVVRVWFCNRRQKEKR [K20V] are within error of each other in abundance fitness: -0.344 ± 0.15 for the first, -0.429 ± 0.12 for the second.

Variant KKRTSIEVSVKGVLETHFLWCPKPAAQEISSLADSLQLEKEVVRVWFCNRRQKEKR [K20W] has an abundance fitness of -0.832 ± 0.18.
